Patent publication US20120134979A1, “METHODS AND COMPOSITIONS FOR THE TREATMENT OF SICKLE CELL DISEASE” (priority 2010, published 2012)

Legend:
[1] = test system: RBCs from SCD patients; test: Hypoxia-induced sickling of RBCs from SCD patients; format: cell-based, human; conditions: RBCs from individuals with SCD, hypoxic conditions
Method: Isolation of total erythrocytes and treatment of human and mouse erythrocytes in vitro. Blood collected with heparin as an anti-coagulant was centrifuged at 240×g for 10 min at room temperature, followed by aspiration of plasma and white interface. Packed red blood cells (RBCs) were washed 3 times with culture media (F-10 Ham's with 1% penicillin/streptomycin, 10% fetal bovine serum (FBS), and re-suspended to 4% hematocrit (HCT). One ml of RBCs was added to each well of a 12-well plate. Normal RBCs purified from humans were treated with different concentrations of 5′-(N-ethyl-carboxamido) adenosine (NECA, an adenosine receptor agonist, Sigma-Aldrich, St. Louis, Mo.) ranging from 1-50 μM for different time points (from 1 to 18 hr) under normoxic conditions. Normal RBCs were treated with 10 μM NECA in the presence or absence of adenosine receptor antagonists, including theophylline, PSB36, SCH442416, MRS1754 and MRS3777 (Tocris Bioscience, St. Louis, Mo.) at 10 μM. In addition, normal RBCs were treated directly with the A2BR agonist (BAY 60-6583, Bayer HealthCare AG, Wuppertal, Germany) or the A2AR agonist (CGS21680) (Tocris). Similarly, the mouse RBCs were treated with or without NECA at 10 μM in the presence or absence of theophylline (10 μM). In addition, RBCs purified from 4 adenosine receptor deficient mice were treated with 10 μM NECA. After 18 hours, cells were collected and 2,3-DPG levels were measured as described below. RBCs were purified from SCD patients and treated with or without 10 μM NECA, 5 units/ml polyethylene glycol-adenosine deaminase (PEG-ADA) or 3 mmol/L glycolic acid (Sigma-Aldrich), 10 μM MRS1754 (A2BR antagonist) under ambient oxygen (normoxia) or different levels of hypoxic conditions (for 3 hours with shaking at 37° C. At the end of experiments, 2,3-DPG levels were measured and the percentage of sickled cells determined as described below.
(§1) Morphological study of erythrocytes and quantification of reticulocytes by flow cytometry. Blood smears were stained using the WG16-500 ml kit (Sigma-Aldrich) for sickled cells and observed using 100× oil immersion objective of Olympus BX60 microscope. […] The percentages of sickled cells among the counted cells were calculated. Reticulocyte was labeled by Retic-COUNT Reagent (Becton Dickinson) and quantified by flow cytometry (Perumbeti, et al., A novel human gamma-globin gene vector for genetic correction of sickle cell anemia in a humanized sickle mouse model: critical determinants for successful correction. Blood. 2009; 114(6):1174-1185).

[2] = test system: SCD Tg mice; test: Hypoxia/reoxygenation-induced acute sickle crisis in SCD Tg mice with PEG-ADA pretreatment; format: in vivo, mouse
Method: Adenosine Analysis. The adenosine concentration present in whole blood was measured by HPLC as previously described (Knudsen, T. B., et al. Effects of (R)-deoxycoformycin (pentostatin) on intrauterine nucleoside catabolism and embryo viability in the pregnant mouse. Teratology 45, 91-103, 1992) with modifications. In brief, 500 μl of 0.6 M cold perchloric acid was added to 500 μl blood on ice, mixed using a vertex mixer and subsequently subject to sonication for 10 seconds with output 6 (W-220F, Heat Systems-Ultrasonic, Inc.). The homogenate was centrifuged at 20,000 g for 10 min at […]. The supernatant (568 μl) was transferred to a new tube and neutralized with 40.9 μl 3 M KHCO3/3.6 N KOH. Phenol red (2 μl of 0.2 mg/ml) was added as indicator. The sample was acidified with 5.7 μl of 1.8 M ammonium dihydrogen phosphate (pH 5.1) and 13.2 μl phosphoric acid (30%). Finally, the sample was centrifuged at 20,000 g for 5 min and the supernatant was transferred to a new tube and stored at −20° C. Before HPLC assay, the sample was thawed on ice, then centrifuged at 20,000 g for 10 minutes. The supernatant was transferred to a new tube for HPLC analysis as described previously (Aldrich, et al. Adenosine deaminase-deficient mice: models for the study of lymphocyte development and adenosine signaling. Adv Exp Med. Biol. 2000; 486, 57-63; Blackburn, et al. Metabolic and immunologic consequences of limited adenosine deaminase expression in mice. The Journal of Biological Chemistry. 1996; 271(25):15203-15210). Plasma adenosine measurements were performed as with whole blood, except the sonication step was omitted. Adenosine content was normalized to volume.
Hypoxia/reoxygenation of SCD Tg mice. SCD Tg mice were subjected to two-hour hypoxic condition with 8% oxygen. After hypoxia, mice were returned to normoxic conditions for four hours Wallace, et al. NKT cells mediate pulmonary inflammation and dysfunction in murine sickle cell disease through production of IFN-gamma and CXCR3 chemokines. Blood. 2009; 114(3):667-676). At the end of the experiments, mice were sacrificed and blood collected for adenosine measurement, sickling and hemolytic analysis.
as §1
2,3-DPG analysis. 2,3-DPG concentration in RBCs was detected by a commercially available kit (Roche, Nutley, N.J., and as described in Ericson A, de Verdier C H. A modified method for the determination of 2,3-diphosphoglycerate in erythrocytes. Scandinavian journal of clinical and laboratory investigation. 1972; 29(1):84-90).
Hemolytic analysis. The hemoglobin, haptoglobin and total bilirubin in mouse plasma were quantified by ELISA kits following instructions provided by the vendor (BioAssay Systems, Hayword, Calif.).

[3] = SCD Tg mice, 2 h hypoxia/4 h reoxygenation, PEG-ADA pretreatment
[4] = SCD Tg mice, hypoxic/reoxygenation condition

B1: PEG-ADA: polyethylene glycol-modified adenosine deaminase, a drug used to lower adenosine concentrations in ADA-deficient humans (protein, UniProt P56658 2-363, looked up)
Adenosine deaminase: AQTPAFNKPKVELHVHLDGAIKPETILYYGRKRGIALPADTPEELQNIIGMDKPLSLPEFLAKFDYYMPAIAGCREAVKRIAYEFVEMKAKDGVVYVEVRYSPHLLANSKVEPIPWNQAEGDLTPDEVVSLVNQGLQEGERDFGVKVRSILCCMRHQPSWSSEVVELCKKYREQTVVAIDLAGDETIEGSSLFPGHVKAYAEAVKSGVHRTVHAGEVGSANVVKEAVDTLKTERLGHGYHTLEDATLYNRLRQENMHFEVCPWSSYLTGAWKPDTEHPVVRFKNDQVNYSLNTDDPLIFKSTLDTDYQMTKNEMGFTEEEFKRLNINAAKSSFLPEDEKKELLDLLYKAYGMPSPASAEQCL
modifications: PEGylated
[1]
  percentage of sickled cells: significantly reduced
[2]; SCD Tg mice RBCs, PEG-ADA pretreatment
  2,3-DPG elevation by hypoxia/reoxygenation: significantly inhibited its elevation
[2]; [3]
  plasma adenosine levels: significantly lowered
  plasma hemoglobin: decreased
  plasma total bilirubin: decreased
  sickling: reduced
[2]; [4]
  HCT: 21.25 ± 2.52 %
  Hb: 4.58 ± 0.38 g/dL
  MCH: 9.12 ± 0.72 pg
  MCHC: 18.65 ± 1.82 g/dL
  MCV: 48.93 ± 2.05 fL
  RBC: 4.94 ± 0.17 M/μl
  RDW: 29.72 ± 1.95 %
  WBC: 18.68 ± 3.32 k/μl
